Experimental data taken from patent publication US20140154255A1 (AbbVie / Abbott, published 2014).

Assays:
[1] = target: T1, human VEGF-A residues 27-191 of Accession #AAV38412 (human, UniProt P15692 27-191); assay: BIAcore SPR, KD WT/KD mutant
T1 construct: range 27-191
Protocol: (§1) The binding kinetics and affinity of the antibodies for VEGF (human VEGF-A residues 27-191 of Accession #AAV38412) was determined by using a BIAcore T200 surface plasmon resonance system (BIAcore, GE Healthcare, Piscataway, N.J.). Coupling running buffer was HBS-EP+ running buffer (10 mM HEPES, 150 mM sodium chloride, 3 mM EDTA 0.05% P-20, pH 7.4); assay running buffer was HBS-EP+ with 300 mM sodium chloride and 0.1 mg/mL BSA (Sigma A7906). Polyclonal goat anti-human Fc (Thermo Scientific prod#31125) was first immobilized to the biosensor surface in 10 mM sodium acetate, pH 4.5 using standard BIAcore amine coupling reagents (N-ethyl-N′-dimethylamino-propylcarbodiimide, EDC; N-hydroxysuccinimide, NHS; and ethanolamine HCl, pH 8.5). For binding kinetics assay a series of cycles were performed, each cycle consisted of 1) mAb capture, 2) Ag or buffer injection, 3) dissociation phase and 4) regeneration. Briefly, anti-VEGF antibodies were captured on parallel surfaces at a low flow rate of 10 μL/min. Capture levels were kept low to minimize avidity due to the dimeric nature of VEGF. No capture of the antibody was made on the reference surface to serve for primary referencing and as a negative control. Subsequently, VEGF or buffer only was injected to all flow cells at a flow rate of 80 μL/min for three minutes to monitor association followed by a 20-minute flow of assay rinning buffer at a flow rate of 80 μL/min to monitor dissociation. […] At the end of each cycle the surface was regenerated with 10 mM glycine, pH 1.5 at a flow rate of 60 μL/min in pulses of 60 and 10 sec. Binding data were fit to the 1:1 Langmuir model with mass transport term included using Biacore T200 Evaluation Software to determine the binding constants.

[2] = target: T1, human VEGF-A residues 27-191 of …; assay: BIAcore SPR
Protocol: as §1

[3] = target: T2, unlabeled human VEGF (ELISA coat) (human, UniProt P15692-4 27-191, limits assumed); assay: ELISA overnight, EC50 WT/EC50 mutant
Protocol: (§2) To detect identified variants binding to antigen, ELISA plates (Nunc-Immuno MaxiSorp plates, Nalge Nunc, Rochester, N.Y.) were coated overnight at 4° C. with unlabeled human VEGF at 1 μg/mL in 0.2 M sodium carbonate-bicarbonate buffer (pH 9.4, Pierce, Rockford, Ill.). The plates were then blocked with SuperBlock Blocking Buffer (Pierce, Rockford, Ill.) for 30 min and washed with Washing Buffer (PBS containing 0.1% Tween 20). All the washing steps were performed for three times. […] The plates were washed and 100 μL of goat anti-human kappa HRP-conjugated antibody (Southern Biotech, Birmingham, Ala.) diluted at 1:1000 in ELISA buffer was added to each well. After 30 minutes of incubation, plates were washed and bound antibodies were detected by addition of TMB 1 Component HRP Microwell substrate (BioFx #TMBW-1000-01). The reaction was terminated by addition of 100 μL/well of 650 nM Stop Reagent for TMB Microwell substrate and the absorbance was measured at 650 nm using a VERSAmax microplate reader (Molecular Devices, Sunnyvale, Calif.). Data were fitted using nonlinear regression with the software […]

[4] = target: T2, unlabeled human VEGF (ELISA coat); assay: ELISA 1 hr, EC50 WT/EC50 mutant
Protocol: as §2

T2 sequence (P15692 other isoform, or with tags, fused parts or gaps limits assumed): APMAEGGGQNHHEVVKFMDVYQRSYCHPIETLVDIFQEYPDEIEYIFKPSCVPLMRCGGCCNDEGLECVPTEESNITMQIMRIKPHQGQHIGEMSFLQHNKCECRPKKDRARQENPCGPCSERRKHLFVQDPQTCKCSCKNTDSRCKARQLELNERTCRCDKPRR
T1 sequence (P15692 other isoform, or with tags, fused parts or gaps limits assumed): as above

Binder	affinity improvement [1]	Kd [2]	koff [2]	kon [2]	ELISA o/n binding [3]	ELISA 1hr binding [4]
T30 K (anti-VEGF IgG) (antibody, V domains shown, copies: 2 + 2) VH: EVQLVESGGGLVQPGGSLRLSCAASGYTFKNYGMNWVRQAPGKGLEWVGWINTYTGEPTYAADFKRRFTFSLDTSKSTAYLQMNSLRAEDTAVYYCAKYPHYYGSSHWYFDVWGQGTLVTVSS VL: DIQMTQSPSSLSASVGDRVTITCSASQDISNYLNWYQQKPGKAPKVLIYFTSSLHSGVPSRFSGSGSGTDFTLTISSLQPEDFATYYCQQYSTVPWTFGQGTKVEIK	0.5 fold	0.92 nM	8.53e-05 s⁻¹	92800 M⁻¹ s⁻¹	3.1 fold	2.5 fold
S100a G (anti-VEGF IgG) (antibody, V domains shown, copies: 2 + 2) VH: EVQLVESGGGLVQPGGSLRLSCAASGYTFTNYGMNWVRQAPGKGLEWVGWINTYTGEPTYAADFKRRFTFSLDTSKSTAYLQMNSLRAEDTAVYYCAKYPHYYGGSHWYFDVWGQGTLVTVSS VL: DIQMTQSPSSLSASVGDRVTITCSASQDISNYLNWYQQKPGKAPKVLIYFTSSLHSGVPSRFSGSGSGTDFTLTISSLQPEDFATYYCQQYSTVPWTFGQGTKVEIK	0.8 fold	0.602 nM	0.000133 s⁻¹	221000 M⁻¹ s⁻¹	3.7 fold	3.7 fold
T28 R (anti-VEGF IgG) (antibody, V domains shown, copies: 2 + 2) VH: EVQLVESGGGLVQPGGSLRLSCAASGYRFTNYGMNWVRQAPGKGLEWVGWINTYTGEPTYAADFKRRFTFSLDTSKSTAYLQMNSLRAEDTAVYYCAKYPHYYGSSHWYFDVWGQGTLVTVSS VL: DIQMTQSPSSLSASVGDRVTITCSASQDISNYLNWYQQKPGKAPKVLIYFTSSLHSGVPSRFSGSGSGTDFTLTISSLQPEDFATYYCQQYSTVPWTFGQGTKVEIK	0.6 fold	0.675 nM	6.44e-05 s⁻¹	95400 M⁻¹ s⁻¹	1.8 fold	1.4 fold
N31 H (anti-VEGF IgG) (antibody, V domains shown, copies: 2 + 2) VH: EVQLVESGGGLVQPGGSLRLSCAASGYTFTHYGMNWVRQAPGKGLEWVGWINTYTGEPTYAADFKRRFTFSLDTSKSTAYLQMNSLRAEDTAVYYCAKYPHYYGSSHWYFDVWGQGTLVTVSS VL: DIQMTQSPSSLSASVGDRVTITCSASQDISNYLNWYQQKPGKAPKVLIYFTSSLHSGVPSRFSGSGSGTDFTLTISSLQPEDFATYYCQQYSTVPWTFGQGTKVEIK	2.5 fold	0.172 nM	3.17e-05 s⁻¹	184000 M⁻¹ s⁻¹	1.9 fold	2.2 fold
S100a Q (anti-VEGF IgG) (antibody, V domains shown, copies: 2 + 2) VH: EVQLVESGGGLVQPGGSLRLSCAASGYTFTNYGMNWVRQAPGKGLEWVGWINTYTGEPTYAADFKRRFTFSLDTSKSTAYLQMNSLRAEDTAVYYCAKYPHYYGQSHWYFDVWGQGTLVTVSS VL: DIQMTQSPSSLSASVGDRVTITCSASQDISNYLNWYQQKPGKAPKVLIYFTSSLHSGVPSRFSGSGSGTDFTLTISSLQPEDFATYYCQQYSTVPWTFGQGTKVEIK	1.1 fold	0.451 nM	6.04e-05 s⁻¹	134000 M⁻¹ s⁻¹	3.6 fold	3.7 fold
N31 Y (anti-VEGF IgG) (antibody, V domains shown, copies: 2 + 2) VH: EVQLVESGGGLVQPGGSLRLSCAASGYTFTYYGMNWVRQAPGKGLEWVGWINTYTGEPTYAADFKRRFTFSLDTSKSTAYLQMNSLRAEDTAVYYCAKYPHYYGSSHWYFDVWGQGTLVTVSS VL: DIQMTQSPSSLSASVGDRVTITCSASQDISNYLNWYQQKPGKAPKVLIYFTSSLHSGVPSRFSGSGSGTDFTLTISSLQPEDFATYYCQQYSTVPWTFGQGTKVEIK	6.6 fold	0.077 nM	1.77e-05 s⁻¹	230000 M⁻¹ s⁻¹	1.5 fold	3 fold
S100a A (anti-VEGF IgG) (antibody, V domains shown, copies: 2 + 2) VH: EVQLVESGGGLVQPGGSLRLSCAASGYTFTNYGMNWVRQAPGKGLEWVGWINTYTGEPTYAADFKRRFTFSLDTSKSTAYLQMNSLRAEDTAVYYCAKYPHYYGASHWYFDVWGQGTLVTVSS VL: DIQMTQSPSSLSASVGDRVTITCSASQDISNYLNWYQQKPGKAPKVLIYFTSSLHSGVPSRFSGSGSGTDFTLTISSLQPEDFATYYCQQYSTVPWTFGQGTKVEIK	1.3 fold	0.337 nM	7.68e-05 s⁻¹	228000 M⁻¹ s⁻¹	2.1 fold	2.2 fold
N31 W (anti-VEGF IgG) (antibody, V domains shown, copies: 2 + 2) VH: EVQLVESGGGLVQPGGSLRLSCAASGYTFTWYGMNWVRQAPGKGLEWVGWINTYTGEPTYAADFKRRFTFSLDTSKSTAYLQMNSLRAEDTAVYYCAKYPHYYGSSHWYFDVWGQGTLVTVSS VL: DIQMTQSPSSLSASVGDRVTITCSASQDISNYLNWYQQKPGKAPKVLIYFTSSLHSGVPSRFSGSGSGTDFTLTISSLQPEDFATYYCQQYSTVPWTFGQGTKVEIK	3.1 fold	0.164 nM	3.42e-05 s⁻¹	209000 M⁻¹ s⁻¹	1.3 fold	2.1 fold
N31 L (anti-VEGF IgG) (antibody, V domains shown, copies: 2 + 2) VH: EVQLVESGGGLVQPGGSLRLSCAASGYTFTLYGMNWVRQAPGKGLEWVGWINTYTGEPTYAADFKRRFTFSLDTSKSTAYLQMNSLRAEDTAVYYCAKYPHYYGSSHWYFDVWGQGTLVTVSS VL: DIQMTQSPSSLSASVGDRVTITCSASQDISNYLNWYQQKPGKAPKVLIYFTSSLHSGVPSRFSGSGSGTDFTLTISSLQPEDFATYYCQQYSTVPWTFGQGTKVEIK	1.8 fold	0.278 nM	6.05e-05 s⁻¹	218000 M⁻¹ s⁻¹	1.1 fold	1.1 fold
T28 Y (anti-VEGF IgG) (antibody, V domains shown, copies: 2 + 2) VH: EVQLVESGGGLVQPGGSLRLSCAASGYYFTNYGMNWVRQAPGKGLEWVGWINTYTGEPTYAADFKRRFTFSLDTSKSTAYLQMNSLRAEDTAVYYCAKYPHYYGSSHWYFDVWGQGTLVTVSS VL: DIQMTQSPSSLSASVGDRVTITCSASQDISNYLNWYQQKPGKAPKVLIYFTSSLHSGVPSRFSGSGSGTDFTLTISSLQPEDFATYYCQQYSTVPWTFGQGTKVEIK	1 fold	0.52 nM	6.32e-05 s⁻¹	122000 M⁻¹ s⁻¹	3.4 fold	5.2 fold
S100a T (anti-VEGF IgG) (antibody, V domains shown, copies: 2 + 2) VH: EVQLVESGGGLVQPGGSLRLSCAASGYTFTNYGMNWVRQAPGKGLEWVGWINTYTGEPTYAADFKRRFTFSLDTSKSTAYLQMNSLRAEDTAVYYCAKYPHYYGTSHWYFDVWGQGTLVTVSS VL: DIQMTQSPSSLSASVGDRVTITCSASQDISNYLNWYQQKPGKAPKVLIYFTSSLHSGVPSRFSGSGSGTDFTLTISSLQPEDFATYYCQQYSTVPWTFGQGTKVEIK	2.2 fold	0.197 nM	4.15e-05 s⁻¹	211000 M⁻¹ s⁻¹	2.7 fold	2.3 fold
H97 A (anti-VEGF IgG) (antibody, V domains shown, copies: 2 + 2) VH: EVQLVESGGGLVQPGGSLRLSCAASGYTFTNYGMNWVRQAPGKGLEWVGWINTYTGEPTYAADFKRRFTFSLDTSKSTAYLQMNSLRAEDTAVYYCAKYPAYYGSSHWYFDVWGQGTLVTVSS VL: DIQMTQSPSSLSASVGDRVTITCSASQDISNYLNWYQQKPGKAPKVLIYFTSSLHSGVPSRFSGSGSGTDFTLTISSLQPEDFATYYCQQYSTVPWTFGQGTKVEIK	0.2 fold	2.2 nM	0.000451 s⁻¹	205000 M⁻¹ s⁻¹	3.4 fold	4 fold
T28 G (anti-VEGF IgG) (antibody, V domains shown, copies: 2 + 2) VH: EVQLVESGGGLVQPGGSLRLSCAASGYGFTNYGMNWVRQAPGKGLEWVGWINTYTGEPTYAADFKRRFTFSLDTSKSTAYLQMNSLRAEDTAVYYCAKYPHYYGSSHWYFDVWGQGTLVTVSS VL: DIQMTQSPSSLSASVGDRVTITCSASQDISNYLNWYQQKPGKAPKVLIYFTSSLHSGVPSRFSGSGSGTDFTLTISSLQPEDFATYYCQQYSTVPWTFGQGTKVEIK	1.3 fold	0.374 nM	4.97e-05 s⁻¹	133000 M⁻¹ s⁻¹	3.9 fold	5.4 fold
